Values of other authors as cited in patent US12150974B2, “Conjugates with inhibitory receptor ligands to induce anergy in insulin-binding B cells” (University of Kansas, priority 2021, dated 2024).

Biological target: T1, CD20 (Homo sapiens, UniProt P11836)
T1 construct: host or cells: B cells of trial patients (endogenous)
T1 sequence (P11836 1-297): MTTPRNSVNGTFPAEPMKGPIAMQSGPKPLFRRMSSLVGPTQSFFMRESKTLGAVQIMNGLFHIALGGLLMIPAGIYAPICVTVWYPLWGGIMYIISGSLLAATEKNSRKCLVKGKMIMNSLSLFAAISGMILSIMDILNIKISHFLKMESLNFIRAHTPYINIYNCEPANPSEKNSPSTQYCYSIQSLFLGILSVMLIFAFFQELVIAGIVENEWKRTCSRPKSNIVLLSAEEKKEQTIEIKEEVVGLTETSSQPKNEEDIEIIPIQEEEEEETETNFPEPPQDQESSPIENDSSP
Details: at 1 year

In the case of rituximab, the “clinical outcome in T1D” value is listed as “beta cell preservation”.
